Test results: patent US10941182 (Amgen, dated 2021)
Read-outs that look alike come from different tables or passages of the source. Non-standard residues stand in square brackets, D forms with d. *: point of attachment. Oic = O=C(O)[C@@H]1C[C@@H]2CCCC[C@@H]2N1; Phe(4-Cl) = N[C@@H](Cc1ccc(Cl)cc1)C(=O)O; NMeR = CN[C@@H](CCCNC(=N)N)C(=O)O; Tridecanoyl = CCCCCCCCCCCCC(=O)*; Cha = N[C@@H](CC1CCCCC1)C(=O)O; Nle = CCCC[C@H](N)C(=O)O; AEEA = NCCOCCOCC(=O)O; Aib = CC(C)(N)C(=O)O

T1: rat APJ receptor (rat, UniProt Q9JHG3 1-377)
T1 sequence (looked up): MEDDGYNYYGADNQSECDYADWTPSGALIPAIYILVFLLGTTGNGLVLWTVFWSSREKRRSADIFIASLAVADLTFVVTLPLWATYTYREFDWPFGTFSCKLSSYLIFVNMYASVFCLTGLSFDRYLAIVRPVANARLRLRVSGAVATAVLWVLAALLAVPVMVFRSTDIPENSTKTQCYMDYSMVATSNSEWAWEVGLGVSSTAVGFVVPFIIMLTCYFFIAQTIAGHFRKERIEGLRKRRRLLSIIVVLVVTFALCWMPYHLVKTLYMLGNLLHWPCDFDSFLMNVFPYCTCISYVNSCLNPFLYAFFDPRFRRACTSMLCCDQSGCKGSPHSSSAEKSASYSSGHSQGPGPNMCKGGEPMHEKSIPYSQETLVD

T2: human APJ receptor (human, UniProt P35414 1-380)
T2 sequence (looked up): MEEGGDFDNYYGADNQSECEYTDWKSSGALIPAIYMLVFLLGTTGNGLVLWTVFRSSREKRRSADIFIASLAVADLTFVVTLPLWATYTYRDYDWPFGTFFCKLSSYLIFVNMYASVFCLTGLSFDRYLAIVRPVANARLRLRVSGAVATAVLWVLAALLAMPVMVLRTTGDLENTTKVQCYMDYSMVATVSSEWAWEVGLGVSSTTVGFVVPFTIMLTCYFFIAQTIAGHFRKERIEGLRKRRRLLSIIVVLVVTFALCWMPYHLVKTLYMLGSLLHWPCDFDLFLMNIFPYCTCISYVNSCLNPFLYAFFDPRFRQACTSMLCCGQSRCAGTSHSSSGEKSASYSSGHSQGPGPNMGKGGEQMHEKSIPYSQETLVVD


What was measured:
Experiment in all cases: cell-based or functional assay
rat APJ receptor [1] = target: T1, rat APJ receptor
human APJ receptor [2] = target: T2, human APJ receptor
rat APJ receptor [3] = target: T1, rat APJ receptor; remark: listed apart in the source
human APJ receptor [4] = target: T2, human APJ receptor; remark: listed apart in the source

| EC50 Rat APJ Receptor (µM), GTPγS assay (rat APJ receptor [1]) [µM] | EC50 Human APJ Receptor (µM), GTPγS assay (human APJ receptor [2]) [µM] | EC50 Rat APJ Receptor (µM), GTPγS assay (rat APJ receptor [3]) [µM] | EC50 Human APJ Receptor (µM), GTPγS assay (human APJ receptor [4]) [µM] | Binder |
| --- | --- | --- | --- | --- |
| 0.00974 | – | – | – | QRPRLSHKGPXPF ({Acetyl-NH}Q[r]P[hArg][aMeLeu]SHKGP[Nle] P[4-Cl-F]{COOH}: N-terminal acetyl; r = D-Arg; hArg, aMeLeu, Nle, 4-Cl-F non-canonical; free C-terminal acid) [Acetylated version of peptide in Fc-peptide conjugate #1 (SEQ ID NO: 70)] |
| – | 0.000404 | 0.00133 | – | Tridecanoyl-[dE][AEEA][AEEA][dQ]RP[NMeR][Cha]SHKG[Oic][Nle][Aib][Phe(4-Cl)]-OH (SMILES CCCCCCCCCCCCC(=O)N[C@H](CCC(=O)O)C(=O)NCCOCCOCC(=O)NCCOCCOCC(=O)N[C@H](CCC(N)=O)C(=O)N[C@@H](CCCNC(=N)N)C(=O)N1CCC[C@H]1C(=O)N(C)[C@@H](CCCNC(=N)N)C(=O)N[C@@H](CC1CCCCC1)C(=O)N[C@@H](CO)C(=O)N[C@@H](Cc1c[nH]cn1)C(=O)N[C@@H](CCCCN)C(=O)NCC(=O)N1[C@H](C(=O)N[C@@H](CCCC)C(=O)NC(C)(C)C(=O)N[C@@H](Cc2ccc(Cl)cc2)C(=O)O)C[C@@H]2CCCC[C@@H]21) [modified apelin polypeptide SEQ ID NO: 547] |
| 0.00393 | – | – | – | QRPRLSHKGPXPF ({Acetyl-NH}Q[NMehArg]P[NMeArg][aMeLeu]SHKGP[Nle]P[4-Cl-F]{COOH: N-terminal acetyl; NMehArg, NMeArg, aMeLeu, Nle, 4-Cl-F non-canonical; free C-terminal acid) [Acetylated version of peptide in Fc-peptide conjugate #3 (SEQ ID NO: 95)] |
| 0.00323 | – | – | 0.000679 | Ac-QRP[NMeR][Cha]SHKG[Oic][Nle][Aib][Phe(4-Cl)]-OH [Acetylated version of peptide in Fc-peptide conjugate #4 (SEQ ID NO: 92)] |
| – | 0.00028 | 0.00108 | – | Tridecanoyl-E[AEEA][AEEA][dQ]RP[NMeR][Cha]SHKG[Oic][Nle][Aib][Phe(4-Cl)]-OH (SMILES CCCCCCCCCCCCC(=O)N[C@@H](CCC(=O)O)C(=O)NCCOCCOCC(=O)NCCOCCOCC(=O)N[C@H](CCC(N)=O)C(=O)N[C@@H](CCCNC(=N)N)C(=O)N1CCC[C@H]1C(=O)N(C)[C@@H](CCCNC(=N)N)C(=O)N[C@@H](CC1CCCCC1)C(=O)N[C@@H](CO)C(=O)N[C@@H](Cc1c[nH]cn1)C(=O)N[C@@H](CCCCN)C(=O)NCC(=O)N1[C@H](C(=O)N[C@@H](CCCC)C(=O)NC(C)(C)C(=O)N[C@@H](Cc2ccc(Cl)cc2)C(=O)O)C[C@@H]2CCCC[C@@H]21) [modified apelin polypeptide SEQ ID NO: 537] |
